# From patent CN112724255A (CHENGDU JINKUN BIOTECHNOLOGY CO LTD, dated 2021)
# T1: 癌胚抗原 (CEA) 抗原 (UniProt P06731 35-685, limits assumed)
# T1 construct: The CEA antigen used for coating is not described further
# T1 sequence (looked up): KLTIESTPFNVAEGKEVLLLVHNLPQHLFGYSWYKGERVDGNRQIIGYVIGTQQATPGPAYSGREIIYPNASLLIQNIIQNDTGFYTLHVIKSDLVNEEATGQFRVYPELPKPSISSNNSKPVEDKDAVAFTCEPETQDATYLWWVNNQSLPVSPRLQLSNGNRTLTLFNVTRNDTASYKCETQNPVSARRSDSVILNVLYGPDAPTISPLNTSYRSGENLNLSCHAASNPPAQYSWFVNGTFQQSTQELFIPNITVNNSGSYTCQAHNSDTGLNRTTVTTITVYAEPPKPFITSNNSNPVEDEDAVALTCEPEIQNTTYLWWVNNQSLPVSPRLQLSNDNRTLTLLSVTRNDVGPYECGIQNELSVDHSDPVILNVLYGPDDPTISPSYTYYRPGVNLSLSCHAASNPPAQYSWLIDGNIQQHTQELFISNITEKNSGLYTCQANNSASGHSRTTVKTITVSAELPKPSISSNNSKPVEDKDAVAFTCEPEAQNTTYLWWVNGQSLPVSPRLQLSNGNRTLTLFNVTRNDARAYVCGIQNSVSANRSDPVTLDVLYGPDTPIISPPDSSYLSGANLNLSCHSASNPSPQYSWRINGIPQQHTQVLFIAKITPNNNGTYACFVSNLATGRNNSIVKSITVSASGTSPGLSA
# Assays:
# [1] = biological target: T1, 癌胚抗原 (CEA) 抗原; experiment: ELISA, CEA antigen coated; converted from 183.6 ng/ml with the relative molecular mass 27486 g/mol
# [2] = biological target: T1, 癌胚抗原 (CEA) 抗原; experiment: ELISA, CEA antigen coated, detection with anti-His-HRP
binder,measurement,setting,value
"96ScFv 单链抗体 (靶向癌胚抗原的小分子抗体) (scFv, Expressed in E. coli from pET22-96ScFv and purified on Ni resin; The vector adds a C-terminal His tag and a cysteine; also called CEA小分子抗体; 本发明抗体片段) scFv: MGQVRLRESGPSLVKPSQTLSLTCTVSGFSLTKYGVSWVRQAPGKALEWLGGVSSGALTAYNTALQSRLSVTRDTSKSQFSLSLSSVTTEDTAIYYCAKSVNGDSVPYGLDYWSPGLLITVSSGGGGSGGGGSGGGGSQAVLTQPSSVSGSLGQRVSITCSGSSSNIGGNAYVGWYQQVPGSAPRLLISATTDRASGIPDRFFGSRSGNTATLTISSLQAEDEADYYCASYQSTYSGVFGSGTMLAVLGTVAAPSVFHHHHHHHLGGC",EC50,[1],6.7 nM
same,EC50,[2],0.184 µg/mL
